Here are results for 3 molecules from EP4328238A1 (Ustav organicke chemie a biochemie AV CR, v.v.i., dated 2024).

In assay [1] the target is His-C3d N1134A (human) (UniProt P01024). Description: SPR (BIAcore T200, 25°C); biotinylated ISG65-Avi immobilised, C3d N1134A as analyte; column koff1.
The target is the same in assay [2]. Description: SPR (BIAcore T200, 25°C); biotinylated ISG65-Avi immobilised, C3d N1134A as analyte.
Assay [3] addresses Human C3(H2O) (human) (UniProt P01024). Kind of assay: SPR (BIAcore T200, 25°C); biotinylated ISG65-Avi immobilised, C3(H2O) as analyte; column kon1.
The target in assay [4] is His-C3d N1134A (human) (UniProt P01024). Description: SPR (BIAcore T200, 25°C); biotinylated ISG65-Avi immobilised, C3d N1134A as analyte; relative to wild type.
The target is the same in assay [5]. Description: SPR; ISG65-Avi immobilised, C3d mutant as analyte; the table prints 25.
The target is the same in assay [6]. Kind of assay: SPR (BIAcore T200, 25°C); biotinylated ISG65-Avi immobilised, C3d N1134A as analyte; column kon1.
For assay [7], the target named is Human C3(H2O) (human) (UniProt P01024). Description: SPR (BIAcore T200, 25°C); biotinylated ISG65-Avi immobilised, C3(H2O) as analyte; column koff1.
Assay [8] has the same target. Kind of assay: SPR (BIAcore T200, 25°C); biotinylated ISG65-Avi immobilised, C3(H2O) as analyte.
The target of a further assay is T1, His-C3d L1109A (human, UniProt P01024 996-1303).
T1 construct: domain: C3d; not shown: His-tag
T1 sequence (P01024 996-1303 L1109A limits assumed): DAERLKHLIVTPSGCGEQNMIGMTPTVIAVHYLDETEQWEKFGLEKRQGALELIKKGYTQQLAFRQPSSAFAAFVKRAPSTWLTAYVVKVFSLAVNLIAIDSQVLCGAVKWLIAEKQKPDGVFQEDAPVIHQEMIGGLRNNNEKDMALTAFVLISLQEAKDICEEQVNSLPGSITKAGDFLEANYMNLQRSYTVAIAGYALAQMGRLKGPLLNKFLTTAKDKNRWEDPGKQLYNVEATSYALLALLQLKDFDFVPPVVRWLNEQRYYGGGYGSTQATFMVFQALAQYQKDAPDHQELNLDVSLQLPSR
Description: SPR (BIAcore T200, 25°C); biotinylated ISG65-Avi immobilised, C3d L1109A as analyte.

Assay [9] deals with T2, Human C3a (ANA domain of C3 when released) (human, UniProt P01024 672-748).
T2 construct: domain: C3a; also called free C3a; recombinant C3a
T2 sequence (P01024 672-748 limits assumed): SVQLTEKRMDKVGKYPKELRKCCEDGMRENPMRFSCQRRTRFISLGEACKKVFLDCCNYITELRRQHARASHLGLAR
Description: SPR (BIAcore T200, 25°C); biotinylated ISG65-Avi immobilised, C3a as analyte.

Assay [10] addresses T3, Human C3b (human, UniProt P01024 749-1663; P01024 23-667).
T3 construct: domain: α-chain of C3b;domain: β-chain of C3b
Description: SPR (BIAcore T200, 25°C); biotinylated ISG65-Avi immobilised, C3b as analyte; column koff1.

Assay [11] addresses T4, Native human complement factor 3 (C3) (human, UniProt P01024 23-667; P01024 672-1663).
T4 construct: Purified from normal human serum (Sigma-Aldrich); also called native C3; human C3
Kind of assay: SPR (BIAcore T200, 25°C); biotinylated ISG65-Avi immobilised, C3 as analyte.

The target in assay [12] is T3, Human C3b. Description: SPR (BIAcore T200, 25°C); biotinylated ISG65-Avi immobilised, C3b as analyte; column kon1.
Assay [13] has as its target T3, Human C3b. Description: SPR (BIAcore T200, 25°C); biotinylated ISG65-Avi immobilised, C3b as analyte.
A further assay deals with T5, His-C3d E1110A (human, UniProt P01024 996-1303).
T5 construct: domain: C3d; not shown: His-tag
T5 sequence (P01024 996-1303 E1110A limits assumed): as the sequence (P01024 996-1303 L1109A limits assumed) above, with A114L, E115A counted along it
Description: SPR (BIAcore T200, 25°C); biotinylated ISG65-Avi immobilised, C3d E1110A as analyte.

Assay [14] addresses T6, His-C3d (recombinant human C3d, thioester domain of C3) (human, UniProt P01024 996-1303).
T6 construct: domain: C3d; also called C3d Wt; TED; not shown: His-tag
Description: SPR (BIAcore T200, 25°C); biotinylated ISG65-Avi immobilised, C3d Wt as analyte.

For assay [15], the target named is T4, Native human complement factor 3 (C3). Description: SPR (BIAcore T200, 25°C); biotinylated ISG65-Avi immobilised, C3 as analyte; column kon1.
Assay [16] shares this target. Kind of assay: SPR (BIAcore T200, 25°C); biotinylated ISG65-Avi immobilised, C3 as analyte; column koff1.
The target in assay [17] is T6, His-C3d (recombinant human C3d, …). Kind of assay: SPR (BIAcore T200, 25°C); biotinylated ISG65-Avi immobilised, C3d Wt as analyte; column koff1.
For assay [18] the target is unchanged. Kind of assay: SPR (BIAcore T200, 25°C); biotinylated ISG65-Avi immobilised, C3d Wt as analyte; column kon1.
Assay [19] has as its target T7, His-C3d-Avi (N-terminal His-tag, C-terminal Avi-tag, biotinylated) (human, UniProt P01024 996-1303, site-specific biotin on the C-terminal Avi-tag).
T7 construct: domain: C3d; Immobilised ligand in SPR for the ISG65 mutants; not shown: N-terminal His-tag; C-terminal Avi-tag
Description: SPR (BIAcore T200, 25°C); biotinylated C3d-Avi immobilised, ISG65 Y293A as analyte.

T3 sequence (P01024 749-1663 limits assumed, chain 1 of 2): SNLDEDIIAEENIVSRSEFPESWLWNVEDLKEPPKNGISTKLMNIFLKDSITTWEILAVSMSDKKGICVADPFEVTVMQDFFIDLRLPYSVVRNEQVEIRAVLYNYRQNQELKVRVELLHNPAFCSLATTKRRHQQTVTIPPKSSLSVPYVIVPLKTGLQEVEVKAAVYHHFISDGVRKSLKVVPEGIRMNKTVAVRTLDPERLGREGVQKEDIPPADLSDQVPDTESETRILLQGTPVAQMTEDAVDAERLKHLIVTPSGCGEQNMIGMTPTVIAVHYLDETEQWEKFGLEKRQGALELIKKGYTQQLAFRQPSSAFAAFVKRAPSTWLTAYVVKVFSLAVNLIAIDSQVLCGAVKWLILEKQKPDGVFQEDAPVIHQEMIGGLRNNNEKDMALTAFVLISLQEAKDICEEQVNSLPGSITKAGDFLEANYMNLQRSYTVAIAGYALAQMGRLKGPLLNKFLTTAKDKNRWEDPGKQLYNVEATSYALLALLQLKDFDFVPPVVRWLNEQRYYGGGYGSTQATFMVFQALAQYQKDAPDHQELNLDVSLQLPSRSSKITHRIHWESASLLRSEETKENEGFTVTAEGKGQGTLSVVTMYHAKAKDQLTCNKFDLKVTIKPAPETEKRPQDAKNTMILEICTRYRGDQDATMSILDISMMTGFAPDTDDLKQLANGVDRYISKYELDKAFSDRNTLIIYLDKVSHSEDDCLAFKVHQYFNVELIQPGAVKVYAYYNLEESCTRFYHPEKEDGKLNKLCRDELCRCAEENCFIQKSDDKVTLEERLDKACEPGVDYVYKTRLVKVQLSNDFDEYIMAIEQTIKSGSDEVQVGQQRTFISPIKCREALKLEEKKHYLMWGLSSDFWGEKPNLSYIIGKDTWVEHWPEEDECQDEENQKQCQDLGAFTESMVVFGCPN
T3 sequence (P01024 23-667 limits assumed, chain 2 of 2): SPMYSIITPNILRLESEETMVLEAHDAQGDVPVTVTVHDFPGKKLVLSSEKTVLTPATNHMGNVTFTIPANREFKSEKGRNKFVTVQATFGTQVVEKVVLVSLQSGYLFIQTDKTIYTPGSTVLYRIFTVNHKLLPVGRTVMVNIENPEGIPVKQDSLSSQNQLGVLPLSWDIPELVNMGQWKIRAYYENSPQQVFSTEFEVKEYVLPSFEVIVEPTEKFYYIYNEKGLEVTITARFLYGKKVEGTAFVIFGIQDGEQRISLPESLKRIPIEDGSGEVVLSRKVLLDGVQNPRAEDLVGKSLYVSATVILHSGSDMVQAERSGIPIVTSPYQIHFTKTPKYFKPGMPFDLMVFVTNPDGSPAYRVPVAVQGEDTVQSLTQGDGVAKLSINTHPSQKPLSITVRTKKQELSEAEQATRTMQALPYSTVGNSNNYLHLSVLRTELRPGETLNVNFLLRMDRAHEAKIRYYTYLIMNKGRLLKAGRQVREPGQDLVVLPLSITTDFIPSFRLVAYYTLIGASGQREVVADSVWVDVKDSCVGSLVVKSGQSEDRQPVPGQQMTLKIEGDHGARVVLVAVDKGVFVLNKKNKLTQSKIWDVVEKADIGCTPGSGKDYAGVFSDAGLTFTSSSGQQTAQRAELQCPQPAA
His-C3d N1134A (human), sequence (P01024 996-1303, stated change not applied): as the sequence (P01024 996-1303 L1109A limits assumed) above, with A114L counted along it
T6 sequence (P01024 996-1303 limits assumed): as the sequence (P01024 996-1303 L1109A limits assumed) above, with A114L counted along it
T4 sequence (P01024 23-667 limits assumed, chain 1 of 2): as the sequence (P01024 23-667 limits assumed, chain 2 of 2) above
T4 sequence (P01024 672-1663 limits assumed, chain 2 of 2): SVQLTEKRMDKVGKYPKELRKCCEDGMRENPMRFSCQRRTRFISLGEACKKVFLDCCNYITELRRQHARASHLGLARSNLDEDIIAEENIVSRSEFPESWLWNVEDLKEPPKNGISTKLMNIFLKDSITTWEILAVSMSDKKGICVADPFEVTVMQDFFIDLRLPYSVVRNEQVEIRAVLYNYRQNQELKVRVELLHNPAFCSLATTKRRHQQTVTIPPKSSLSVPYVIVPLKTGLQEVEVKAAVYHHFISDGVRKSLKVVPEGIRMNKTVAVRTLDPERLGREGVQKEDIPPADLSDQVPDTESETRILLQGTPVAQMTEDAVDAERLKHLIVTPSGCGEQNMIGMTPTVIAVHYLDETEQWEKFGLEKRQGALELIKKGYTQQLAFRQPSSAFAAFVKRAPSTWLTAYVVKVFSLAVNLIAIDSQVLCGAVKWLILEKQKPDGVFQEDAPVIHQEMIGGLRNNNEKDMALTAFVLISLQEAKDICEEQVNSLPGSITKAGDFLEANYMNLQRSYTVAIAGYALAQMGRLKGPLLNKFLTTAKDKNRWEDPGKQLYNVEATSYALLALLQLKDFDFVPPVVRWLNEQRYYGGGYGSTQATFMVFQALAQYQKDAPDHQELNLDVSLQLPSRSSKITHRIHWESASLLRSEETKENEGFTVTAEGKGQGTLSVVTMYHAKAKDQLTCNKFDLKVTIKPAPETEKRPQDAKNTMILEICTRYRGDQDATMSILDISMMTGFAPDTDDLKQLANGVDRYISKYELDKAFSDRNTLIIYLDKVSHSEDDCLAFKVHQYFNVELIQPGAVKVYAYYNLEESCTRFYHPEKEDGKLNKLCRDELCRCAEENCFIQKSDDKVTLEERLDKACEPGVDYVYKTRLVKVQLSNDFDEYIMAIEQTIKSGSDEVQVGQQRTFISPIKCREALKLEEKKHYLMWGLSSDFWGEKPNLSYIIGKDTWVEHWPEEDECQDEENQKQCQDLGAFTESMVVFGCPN
T7 sequence (P01024 996-1303 limits assumed): as the sequence (P01024 996-1303 L1109A limits assumed) above, with A114L counted along it

“His-ISG65 18-363-Avi (N-terminal hexa-histidine tag, C-terminal Avi-tag, biotinylated) (receptor)”: the koff was 0.0542 s⁻¹ in the assay with His-C3d N1134A (human) [1] and 0.017 s⁻¹ with Human C3(H2O) (human) [7]. Further, the Kd with His-C3d N1134A (human) [2] amounted to 28.6 nM; with Human C3(H2O) (human) [8], 18 nM. In addition, the association rate constant (kon) was found to be 942000 M⁻¹ s⁻¹ with Human C3(H2O) (human) [3] and 1.89e+06 M⁻¹ s⁻¹ with His-C3d N1134A (human) [6]. In the assay with His-C3d N1134A (human) [4], this molecule came in with an ISG65 binding (%) of 25%. For the same molecule, the binding affinity (% of wild type) with His-C3d N1134A (human) [5] amounted to 24%.

B1: His-ISG65 18-363-Avi (N-terminal hexa-histidine tag, C-terminal Avi-tag, biotinylated) (receptor)
chain: LLVIGSEDNRVPGDKKLTKEGAAALCKMKHLADKVAKERSQELKDRTQNFAGYIEFELYRIDYWLEKLNGPKGRKDGYAKLSDSDIEKVKEIFNKAKDGITKQLPEAKKAGEEAGKLHTEVKKAAENARGQDLDDDTAKSTGLYRVLNWYCITKEERHNATPNCDGIQFRKHYLSVNRSAIDCSSTSYEENYDWSANALQVALNSWEDVKPKKLESAGSDKNCNIGQSSESHPCTMTEEWQTPYKETVEKLRELEDAYQRGKKAHDAMLGYANTAYAVNTKVEQEKPLTEVIAAAKEAGKKGAKIIIPAAAPATPTNSTKNDDSAPTEHVDRGIATNETQVEVGID
modifications: site-specific biotin on the C-terminal Avi-tag
notes: Immobilised ligand in SPR on a CAP chip; also called ISG65-Avi; biotinylated ISG65; not shown: N-terminal hexa-histidine tag of pET15b construct; C-terminal Avi-tag
Regarding B1, the Kd with His-C3d L1109A is 52.9 nM; in assay [9] it was 18100 nM; in [11], 129 nM; with Human C3b [13], 80.9 nM; with His-C3d E1110A, 15.7 nM; in assay [14], 7.2 nM. The figures for the koff (in the assay with Human C3b [10]; in assay [16]; in [17]) were 0.0212 s⁻¹, 0.0543 s⁻¹ and 0.0379 s⁻¹, respectively. The kon was found to be 262000 M⁻¹ s⁻¹ in the assay with Human C3b [12], 81800 M⁻¹ s⁻¹ in assay [15] and 5.24e+06 M⁻¹ s⁻¹ in assay [18].

B2: His-ISG65 18-363 Y293A (receptor)
chain: MGSSHHHHHHSSGLVPRGSHMLLVIGSEDNRVPGDKKLTKEGAAALCKMKHLADKVAKERSQELKDRTQNFAGYIEFELYRIDYWLEKLNGPKGRKDGYAKLSDSDIEKVKEIFNKAKDGITKQLPEAKKAGEEAGKLHTEVKKAAENARGQDLDDDTAKSTGLYRVLNWYCITKEERHNATPNCDGIQFRKHYLSVNRSAIDCSSTSYEENYDWSANALQVALNSWEDVKPKKLESAGSDKNCNIGQSSESHPCTMTEEWQTPYKETVEKLRELEDAYQRGKKAHDAMLGYANTAAAVNTKVEQEKPLTEVIAAAKEAGKKGAKIIIPAAAPATPTNSTKNDDSAPTEHVDRGIATNETQVEVGID
notes: also called ISG65 Y293A
With B2, the binding result in assay [19] was “no binding (tested: ISG65 analyte 1.5-100 nM)”.
